The assay concerns the target IL-15 (Homo sapiens), P40933. Conditions: Fc fusion; remark: other sources report otherwise.

The Kd is the equilibrium constant for the complex coming apart. A higher Kd goes with lower affinity.

IL-15 (Homo sapiens), P40933, sequence (P40933 49-162): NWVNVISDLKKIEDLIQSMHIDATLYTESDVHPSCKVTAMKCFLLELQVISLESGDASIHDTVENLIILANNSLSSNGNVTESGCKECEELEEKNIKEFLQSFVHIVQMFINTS

B1: rIL-15Rα-Fc, Q13261 (protein)
chain: ITCPPPMSVEHADIWVKSYSLYSRERYICNSGFKRKAGTSSLTECVLNKATNVAHWTTPSLKCIRDPALVHQRPAPPSTVTTAGVTPQPESLSPSGKEPAASSPSSNNTAATTAAIVPGSQLMPSKSPSTGTTEISSHESSHGTPSQTTAKNWELTASASHQPPGVYPQGHSDTT
Take B1: the Kd came to 0.115 nM.

For the origin of these results see PMC12114846, “Interleukin-15Rα-Sushi-Fc Fusion Protein Co-Hitchhikes Interleukin-15 and Pheophorbide A for Cancer Photoimmunotherapy” (Pharmaceutics, 2025).
